Data reported in PMC8406324.

Target: HTNV Gn as incorporated in virus-like particles (Hantaan virus (HTNV))
Assay: cryo-EM structure

## HTNV Gn as incorporated in virus-like particles (natural protein)
  stoichiometry N: 4
